The text below walks through data of IntAct's records for PubMed 22949673.

B1: 5-cytosine rRNA methyltransferase NSUN4 (Homo sapiens), Q96CB9-1 (parent)
chain: MAALTLRGVRELLKRVDLATVPRRHRYKKKWAATEPKFPAVRLALQNFDMTYSVQFGDLWPSIRVSLLSEQKYGALVNNFAAWDHVSAKLEQLSAKDFVNEAISHWELQSEGGQSAAPSPASWACSPNLRCFTFDRGDISRFPPARPGSLGVMEYYLMDAASLLPVLALGLQPGDIVLDLCAAPGGKTLALLQTGCCRNLAANDLSPSRIARLQKILHSYVPEEIRDGNQVRVTSWDGRKWGELEGDTYDRVLVDVPCTTDRHSLHEEENNIFKRSRKKERQILPVLQVQLLAAGLLATKPGGHVVYSTCSLSHLQNEYVVQGAIELLANQYSIQVQVEDLTHFRRVFMDTFCFFSSCQVGELVIPNLMANFGPMYFCKMRRLT
partner: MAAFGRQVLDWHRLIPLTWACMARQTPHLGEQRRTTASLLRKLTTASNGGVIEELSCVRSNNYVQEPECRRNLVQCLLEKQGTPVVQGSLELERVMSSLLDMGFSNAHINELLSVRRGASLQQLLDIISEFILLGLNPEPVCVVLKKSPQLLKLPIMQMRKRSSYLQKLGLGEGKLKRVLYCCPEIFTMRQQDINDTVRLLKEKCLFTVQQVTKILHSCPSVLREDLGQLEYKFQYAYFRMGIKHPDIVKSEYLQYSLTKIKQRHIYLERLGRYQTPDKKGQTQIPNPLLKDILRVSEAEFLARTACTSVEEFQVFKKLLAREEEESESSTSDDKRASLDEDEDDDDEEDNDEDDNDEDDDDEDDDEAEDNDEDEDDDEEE

This test covers variants of B1. The conditions noted are these: with mtef4_human MTERF4, Q7Z6M4.
In the case of V65R;R136A;I139R;R141A, the “effect of a mutation on the interaction” value is reported as “disrupting interaction strength”.
